From US20180305451A1 (COMPUGEN, published 2018) come the findings set out here.

T1: mouse HIDE1 (mouse, UniProt Q75VT8 22-222)
T1 construct: Endogenous on EL4, YAC-1, J774A.1/J774A.2 cells; also called AB124611; mHIDE1
T1 sequence: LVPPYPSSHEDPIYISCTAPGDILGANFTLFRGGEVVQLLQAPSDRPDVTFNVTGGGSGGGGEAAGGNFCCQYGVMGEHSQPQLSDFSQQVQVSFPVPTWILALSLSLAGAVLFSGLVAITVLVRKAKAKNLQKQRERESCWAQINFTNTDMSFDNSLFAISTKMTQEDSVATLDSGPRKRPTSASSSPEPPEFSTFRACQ

T2: human HIDE1 (human, UniProt A8MVS5 20-230)
T2 construct: Endogenous on U937, HL-60, THP-1 cells, blood monocytes, AML blasts and dendritic cells; also called C19orf38; hHIDE1
T2 sequence: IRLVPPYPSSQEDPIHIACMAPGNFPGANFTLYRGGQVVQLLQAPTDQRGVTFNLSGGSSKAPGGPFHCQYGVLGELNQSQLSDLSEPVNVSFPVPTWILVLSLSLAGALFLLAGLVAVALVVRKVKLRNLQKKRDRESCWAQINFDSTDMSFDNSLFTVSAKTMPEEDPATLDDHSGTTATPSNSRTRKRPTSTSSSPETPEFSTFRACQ

B1: CPA.12.007 human IgG4 (antibody, V domains shown)
VH: EVQLVESGGGVVQPGESLRLSCAASGFTFSSYGFHWVRQSPGEGLEWLAVISYDGTSKSYADSVKGRFTVSRDNSKETLYLQLSSLRREDTALYYCARDTWGYYYGMDVWGQGTTVTVSS
VL: DIQMTQSPSFLSGSVGDRVSISCRASQDIRSHLAWYQRKPGEAPKLLIYTASSLQGGVPLRFSGSGSGTEFTLTISSLQPEDSATYYCQHLHLYPLTFGGGTKLEIKR
notes: also called CPA.12.007-H4
B2: CPA.12.015 human IgG4 (antibody, V domains shown)
VH: QVQLQESGPGLVKPSETLSLTCTVSGGSISSSSYYWGWIRQPPGKGLEWIGSIYYSGSTHYNPSLKSRVTISVDTSKNQFSLKLSSVTAADTAVYYCARVYYGSGTGGAFDIWGQGTMVTVSS
VL: QSVLTQPPSVSGAPGQRVTISCTGSSSNIGAAYDVHWYQQLPGTAPKLLIYGDTIRPSGVPDRFSGSKSGTSASLAITGLQAEDEADYYCQSYDSSLSGSWVFGGGTQLTVLG
notes: also called CPA.12.015-H4
B3: CPA.12.014 human IgG4 (antibody, V domains shown)
VH: QVTLKESGPALVTPTQNLTLTCTVSGGSISSSSYYWGWIRQPPGKGLEWIGSIYYSGSTYYNPSLKSRVTISVDTSKNQFSLKLSSVTAADTAVYYCARRRNSSGWFYFDYWGQGTLVTVSS
VL: QSVLTQPPSVSGAPRQRVTISCSGSRSNIGDNAVNWYQHPPGKAPKLLIYYDDLLPSGVSDRFSGSKSGTSASLAISGLQSEDEADYYCATWDDSLNGHVFGTGTKLTVLG
notes: also called CPA.12.014-H4
B4: CPA.12.012 human IgG4 (antibody, V domains shown)
VH: QVQLVESGGGVVQPGRSLRLSCAASGFTFSSYAMHWVRQAPGKGLEWVAVISYDGSNKYYADSVKGRFTISRDNSKNTLYLQMNSLRAEDTAVYYCARSSGSSWSNIAYWGQGTLVTVSS
VL: QSVLTQPPSVSGAPGQRVTISCIGSSSNIGAGYDVHWYRQLPGTAPKLLIYDNTNRPSGVPDRFSASKSGISASLAITGLQAEDEADYYCQSYDSNLSGVFGGGTQLTVLG
notes: also called CPA.12.012-H4; CPA.12.0012-H4
B5: CPA.12.013 human IgG4 (antibody, V domains shown)
VH: EVQLVETGGGLIQPGRSLRLSCVASDFRFSNHAMHWVRQAPGKELEWVAVISSDGSNRQYAYSVKGRFTISRDNSKNTLYLEMNILGPEDTAVYFCVRSHLGPEWYYGMDVWGQGTTVTVSS
VL: DIQMTQSPSSLSASVGDRVTITCQASHDIRKFLNWYQQHPGKAPKLLIYDAAYSEIGVPSRFSGGGSGTDFTFTINNLQPDDFATYYCQQYESLPFTFGPGTKVDIKR
notes: also called CPA.12.013-H4
B6: CPA.12.006 human IgG4 (antibody, V domains shown)
VH: EVQLVESGGGVVQPGRSLRLSCAASGFTFSSFAMHWVRQAPGKGPEWLGIILYEGGHVVYADSVRGRLTISRDNSKNTLYLQMDSLRDEDTAVYYCAKGFYHAFDVWGQGTMVTVSS
VL: QAVLTQPASLSASPGASASLTCTLRSGINVGTYRIYWYQQKPGSPPQYLLRYKSDSDKQQGSGVPSRFSGSKDASANAGILLISGLQSEDEADYYCMIWHSSAWVFGGGTQLTVLG
notes: also called CPA.12.006-H4
B7: CPA.12.005 human IgG4 (antibody, V domains shown)
VH: QVQLVESGGGVVQPGRSLRVSCAVSGFTFSSYGMHWVRQAPGGGLEWVAVMSYEGSFRHYADSVKGRFTISRDNSKNTLFLQMDSLRAEDTAVYYCARDRPAGYTSGWGILDYWGQGTLVTVSS
VL: EIVMTQSPATLSLSPGERATLSCRASQSVSSYLAWYQQKPGQAPRLLIYDASNRATGIPARFSGSGSGTDFTLTISSLEPEDFAVYYCQQRSNWPLTFGGGTKVDIKR
notes: also called CPA.12.005-H4
B8: CPA.12.009 human IgG4 (antibody, V domains shown)
VH: QMQLVQSGAEVKKPGASVKVSCKASGYTFTTHAFSWVRQAPGLGLEWMGWISTYNGNTKYEQKFQGRVTLTTDSSTNTAYMELRSLRSDDTAVYYCVRDSRAFDVWGQGTMVTVSS
VL: DIQLTQSPSFLSASVGDRVTITCRASQGINSYLAWYQQKPGAAPKLLIYAASTLQSGVPSRFSGSGSGTEFTLTISSLQPEDFATYYCQQLNTYPLIFGQGTRLEIKR
notes: also called CPA.12.009-H4
B9: CPA.12.008 human IgG4 (antibody, V domains shown)
VH: QVQLQESGPGLVTPSETLSLTCTVSGGSISSVSYYWGWVRQPPGKGLEWIGSIYYSGTTAHNPSLKSRVTMAVDTSKNQFSLSLSSVTAADTAVYFCARGWRYYEDYYFDHWGQGTLVTVSS
VL: AIRMTQSPSSLSASVGDRVTITCQASQDISNYLNWYQQKPGKAPKSLIYAASSLQSGVPSKFSGSGSGTDFTLTISSLQPEDFATYYCQQYYSYPLTFGGGTKVEIKR
notes: also called CPA.12.008-H4

In the first test the target is T1, mouse HIDE1. Description: FACS on 293T-moHIDE1 cells, human IgG4. The procedure: (§1) FACS screening of reformatted IgG4 antibodies: The cell lines described in paragraph [001066] (“FACS screening of PPE”) were mixed with FACS buffer containing the purified anti-HIDE1 IgGs or isotype controls. […] Cells were washed again and fluorescence was detected using an Intellicyt HTFC screening system (Intellicyt). Data were analyzed using FCS Express (DeNovo) and plotted for affinity calculations (KD) in GraphPad Prism (GraphPad Software, Inc.). Note that each anti-HIDE1 antibody was tested over a titration range from 0-80 μg/mL.
(§2) Overview of FACS binding results for human IgG4 antibodies reformatted from Fab screening hits. […] IgGs from the same H-CDR3 family are indicated by the same color, either blue or green. CPA.12.003 & CPA.12.008 have identical heavy chain CDR-3 regions and minor differences in framework regions or other CDRs. The same holds for CPA.12.004 & CPA.12.013. N.B. not binding.
B1: the binding result was “no binding (tested: titration 0-80 µg/mL)”.
Take B2: the binding result is listed as “no binding (tested: titration 0-80 µg/mL)”.
Same read-out and setting: with B3 the entry was “no binding (tested: titration 0-80 µg/mL)”; with B4, “no binding (tested: titration 0-80 µg/mL)”; with B5, “no binding (tested: titration 0-80 µg/mL)”.
The same measure, in the same setting: with B6 the entry was “no binding (tested: titration 0-80 µg/mL)”; with B7, “no binding (tested: titration 0-80 µg/mL)”; with B8, “no binding (tested: titration 0-80 µg/mL)”.
On the same count and under the same terms, the entry for B9 is “no binding (tested: titration 0-80 µg/mL)”.

Another test concerns the target T2, human HIDE1. The test is described as follows: FACS titration on 293T-huHIDE1 cells, human IgG4 (preliminary FACS KD). The procedure:
as §1, §2
The molecule B1 gave a dissociation constant (Kd) of 14 nM.
The same measure, in the same setting: with B2 the figure was 11 nM; with B3, 13 nM.
Still for that read-out and setting: the figure for B4 is 1.3 nM; for B5 it is 2.6 nM.
With B6, the dissociation constant Kd is 2.5 nM.
With B7, the affinity, expressed as Kd, was 4 nM.
On the same count and under the same terms, with B8 the figure was 1.7 nM.
On the same count and under the same terms, with B9 the figure was 1.3 nM.
